Source: US20130202591A1 (ANAPTYSBIO, published 2013)
Positions count from the first letter of the chain named.

B1: MP4-9 (antibody, V domains shown)
VH: EVQLVESGGGLVQPGGSLRLSCAASGFTFSNYWMSWVRQAPGKGLEWVAAIKQDGSEKYYVDSVKGRFTISRDNAKNSLYLQMNSLRAEDTAVYYCARDYYDILTDYYIHYWYFDLWGRGTLVTVSS
VL: not shown
notes: Captured by anti-human Fc
B2: 887/841 (antibody, V domains shown)
VH: B1 VH with N31D, S35D, A50S, K52R, Q53E
VL: DIQMTQSPSSLSASVGDRVTITCRASQSISSYLNWYQQKPGKAPKLLIYAASSLQSGVPSRFSGSGSGTDFTLTISSLQPEDFAVYYCQQYGSSPLTFGGGTKVEIKR
notes: Captured by anti-human Fc
B3: MP4-20 (antibody, V domains shown)
VH: B1 VH with D62G
VL: not shown
notes: Captured by anti-human Fc
B4: 1134/773 (antibody, V domains shown)
VH: B1 VH with N31S, A40T, A50S, G66V
VL: not shown
notes: Captured by anti-human Fc
B5: MP4-14 (antibody, V domains shown)
VH: B1 VH with N31S, K52N
VL: not shown
notes: Captured by anti-human Fc
B6: 1153/773 (antibody, V domains shown)
VH: B1 VH with N31S, Y32H, A50S, Q53E, G66V
VL: not shown
notes: Captured by anti-human Fc
B7: MP4-5 (antibody, V domains shown)
VH: B1 VH with S35N, D62G, A97V
VL: not shown
notes: Captured by anti-human Fc
B8: 846/773 (antibody, V domains shown)
VH: B1 VH with Y32S, S35T, A50S, K52N, Q53H, Y59H, D62G, A88V
VL: not shown
notes: Captured by anti-human Fc
B9: MP4-11 (antibody, V domains shown)
VH: B1 VH with A50N, A97V
VL: not shown
notes: Captured by anti-human Fc
B10: 1139/773 (antibody, V domains shown)
VH: B1 VH with N31S, Y32H, A40T, A50S, Q53E
VL: not shown
notes: Captured by anti-human Fc
B11: 847/842 (antibody, V domains shown)
VH: B1 VH with N31S, Y32H, A50S, Q53E
VL: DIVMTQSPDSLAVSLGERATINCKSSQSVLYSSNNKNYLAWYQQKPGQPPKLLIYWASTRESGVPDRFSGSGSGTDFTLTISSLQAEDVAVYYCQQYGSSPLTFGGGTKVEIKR
notes: Captured by anti-human Fc
B12: MP4-2 (antibody, V domains shown)
VH: B1 VH with N31S, K52N, D62G, A97V
VL: not shown
notes: Captured by anti-human Fc
B13: MP4-4 (antibody, V domains shown)
VH: B1 VH with S35N, D62G
VL: not shown
notes: Captured by anti-human Fc
B14: MP4-16 (antibody, V domains shown)
VH: B1 VH with K52N, D62G
VL: not shown
notes: Captured by anti-human Fc
B15: 1129/773 (antibody, V domains shown)
VH: B1 VH with N31S, A50N, G66V
VL: not shown
notes: Captured by anti-human Fc
B16: 878/772 (antibody, V domains shown)
VH: B1 VH with N31D, S35D, A50N, K52R, Q53E
VL: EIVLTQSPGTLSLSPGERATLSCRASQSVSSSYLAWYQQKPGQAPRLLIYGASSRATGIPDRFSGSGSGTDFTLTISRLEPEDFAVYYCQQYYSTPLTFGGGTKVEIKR
notes: Captured by anti-human Fc
B17: MP4-17 (antibody, V domains shown)
VH: B1 VH with A50N
VL: not shown
notes: Captured by anti-human Fc
B18: 1142/773 (antibody, V domains shown)
VH: B1 VH with N31D, S35D, A50S, K52R, Q53E, D62G, A88V, A97V
VL: not shown
notes: Captured by anti-human Fc
B19: 847/772 (antibody, V domains shown)
VH: B1 VH with N31S, Y32H, A50S, Q53E
VL: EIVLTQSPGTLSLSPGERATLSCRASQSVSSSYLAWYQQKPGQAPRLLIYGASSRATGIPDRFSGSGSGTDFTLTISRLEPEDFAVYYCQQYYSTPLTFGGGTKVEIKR
notes: Captured by anti-human Fc
B20: 887/772 (antibody, V domains shown)
VH: B1 VH with N31D, S35D, A50S, K52R, Q53E
VL: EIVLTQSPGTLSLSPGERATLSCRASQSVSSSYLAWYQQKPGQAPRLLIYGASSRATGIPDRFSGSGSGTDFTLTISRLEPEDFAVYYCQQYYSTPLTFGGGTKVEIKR
notes: Captured by anti-human Fc
B21: 1144/773 (antibody, V domains shown)
VH: B1 VH with Y32H, S35N, A50S, K52R, Q53E
VL: not shown
notes: Captured by anti-human Fc
B22: 1102/773 (antibody, V domains shown)
VH: B1 VH with N31S, S35D, A50N, K52R, Q53E
VL: not shown
notes: Captured by anti-human Fc
B23: MP4-6 (antibody, V domains shown)
VH: B1 VH with N31S, A50N, K52N, D62G, A97V
VL: not shown
notes: Captured by anti-human Fc
B24: 1146/773 (antibody, V domains shown)
VH: B1 VH with S35D, A50S, K52R, Q53E, D62G, A88V, A97V
VL: not shown
notes: Captured by anti-human Fc
B25: MP4-21 (antibody, V domains shown)
VH: B1 VH with S35N, A50N, K52N, D62G
VL: not shown
notes: Captured by anti-human Fc
B26: 1147/773 (antibody, V domains shown)
VH: B1 VH with N31S, S35D, A50S, K52R, Q53E
VL: not shown
notes: Captured by anti-human Fc
B27: 1137/773 (antibody, V domains shown)
VH: B1 VH with N31S, A40T, A50N
VL: not shown
notes: Captured by anti-human Fc
B28: MP4-22 (antibody, V domains shown)
VH: B1 VH with A97V
VL: not shown
notes: Captured by anti-human Fc
B29: MP4-7 (antibody, V domains shown)
VH: B1 VH with A50N, K52N, D62G, A97V
VL: not shown
notes: Captured by anti-human Fc
B30: 1143/773 (antibody, V domains shown)
VH: B1 VH with Y32H, S35N, A50G, K52R, Q53E
VL: not shown
notes: Captured by anti-human Fc
B31: 878/842 (antibody, V domains shown)
VH: B1 VH with N31D, S35D, A50N, K52R, Q53E
VL: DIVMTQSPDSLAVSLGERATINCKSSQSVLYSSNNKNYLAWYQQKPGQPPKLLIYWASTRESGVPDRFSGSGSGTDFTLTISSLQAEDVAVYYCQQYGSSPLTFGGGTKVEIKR
notes: Captured by anti-human Fc
B32: MP4-8 (antibody, V domains shown)
VH: B1 VH with A50N, K52N, A97V
VL: not shown
notes: Captured by anti-human Fc
B33: MP4-10 (antibody, V domains shown)
VH: B1 VH with D62G, A97V
VL: not shown
notes: Captured by anti-human Fc
B34: MP4-23 (antibody, V domains shown)
VH: B1 VH with N31S, S35N, D62G, A97V
VL: not shown
notes: Captured by anti-human Fc
B35: APE499-1332/773 (antibody, V domains shown)
VH: B1 VH with Y32H, S35N, A40T, K52N, Q53E, D62G, G66V, T69I, A88V
VL: not shown
notes: Human IgG (detected with anti-human IgG)
B36: APE490-1263/773 (antibody, V domains shown)
VH: B1 VH with N31D, Y32F, S35D, A40T, A50S, Q53E, D62G, G66V, A88V
VL: not shown
notes: as for B35
B37: APE253-771/773 (antibody, V domains shown)
VH: B1 VH with N31S, Y32H, A50N, Q53E
VL: not shown
notes: Human IgG; also called Well 10
B38: APE498-1330/773 (antibody, V domains shown)
VH: B1 VH with Y32H, S35N, A40T, K52N, Q53E, D62G, G66V, A88V, A97T
VL: not shown
notes: as for B35
B39: APE860-1723/773 (antibody, V domains shown)
VH: B1 VH with S30N, Y32H, S35N, A40T, K52N, Q53E, D62G, G66V, A88V, A97V
VL: not shown
notes: as for B35
B40: APE320-847/773 (antibody, V domains shown)
VH: B1 VH with N31S, Y32H, A50S, Q53E
VL: not shown
notes: as for B35
B41: APE545-1346/773 (antibody, V domains shown)
VH: B1 VH with N31S, Y32H, A40T, A50S, Q53E, D62G, G66V, T69I, A88V
VL: not shown
notes: as for B35
B42: APE319-887/773 (antibody, V domains shown)
VH: B1 VH with N31D, S35D, A50S, K52R, Q53E
VL: not shown
notes: as for B35
B43: APE744-1266/1540 (antibody, V domains shown)
VH: B1 VH with Y32H, S35N, A40T, K52N, Q53E, D62G, G66V, A88V, A97V
VL: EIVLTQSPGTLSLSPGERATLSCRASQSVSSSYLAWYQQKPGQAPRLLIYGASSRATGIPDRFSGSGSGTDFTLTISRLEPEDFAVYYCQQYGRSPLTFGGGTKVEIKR
notes: as for B35
B44: APE318-878/773 (antibody, V domains shown)
VH: B1 VH with N31D, S35D, A50N, K52R, Q53E
VL: not shown
notes: as for B35
B45: APE480-1261/773 (antibody, V domains shown)
VH: B1 VH with N31D, Y32F, S35D, A40T, A50S, Q53E, G66V
VL: not shown
notes: as for B35
B46: APE470-1150/773 (antibody, V domains shown)
VH: B1 VH with N31D, Y32F, S35D, A50N, Q53E
VL: not shown
notes: as for B35
B47: APE467-1138/773 (antibody, V domains shown)
VH: B1 VH with N31S, Y32H, A40T, A50S, Q53E, G66V
VL: not shown
notes: as for B35
B48: APE857-1622/773 (antibody, V domains shown)
VH: EVQLVESGGGLVQPGGSLRLSCAASGFTFSNHWMNWVRQTPGKGLEWVAAINEDGSEKYYVGSVKVRFTISRDNAKNSLYLQMNSLRVEDTAVYYCVRDYYDILTRDYYDILTDYYIHYWYFDLWGRGTLVTVSS
VL: not shown
notes: as for B35
B49: antibody with heavy chain SEQ ID NO: 1 and light chain SEQ ID NO: 29 (antibody, V domains shown)
VH: B1 VH with N31S, A50N
VL: not shown
notes: IgG captured by anti-human Fc; also called Well 2
B50: 546/773 (antibody, V domains shown)
VH: B1 VH with N31S, A50N
VL: not shown
notes: IgG captured by anti-human Fc; also called Well 9
B51: antibody with heavy chain SEQ ID NO: 9 and light chain SEQ ID NO: 29 (antibody, V domains shown)
VH: B1 VH with S35N, A50S, K52N, D62G, A88V, A97V
VL: not shown
notes: IgG captured by anti-human Fc; also called Well 7
B52: antibody with heavy chain SEQ ID NO: 30 and light chain SEQ ID NO: 24 (antibody, V domains shown)
VH: B1 VH with S35N, K52N, D62G, A88V, A97V
VL: not shown
notes: IgG captured by anti-human Fc; also called Well 8
B53: 843/773 (antibody, V domains shown)
VH: B1 VH with S35N, A50S, K52N, D62G, A88V, A97V
VL: not shown
notes: IgG captured by anti-human Fc; also called Well 14
B54: antibody with heavy chain SEQ ID NO: 4 and light chain SEQ ID NO: 29 (antibody, V domains shown)
VH: B1 VH with Y32H, S35N, K52N, Q53E, D62G, A88V
VL: not shown
notes: IgG captured by anti-human Fc; also called Well 4
B55: antibody with heavy chain SEQ ID NO: 2 and light chain SEQ ID NO: 29 (antibody, V domains shown)
VH: B1 VH with N31S, Y32H, A50N, Q53E
VL: not shown
notes: IgG captured by anti-human Fc; also called Well 3

molecular target: T1, human IL-17 (human, UniProt Q16552 24-155); test: SPR (BIACORE), antibody captured by anti-human Fc, antigen in flow; grade: ++ strong binding, + binding, +/- close to background;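 further: antigen injected at two-fold dilutions from 50 nM over captured antibody at 30 µL/min, dissociation followed for 10 min, kinetics fitted with a 1:1 mass-transport model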
T1 construct: also called hIL-17; IL-17A
T1 sequence (Q16552 24-155 limits assumed): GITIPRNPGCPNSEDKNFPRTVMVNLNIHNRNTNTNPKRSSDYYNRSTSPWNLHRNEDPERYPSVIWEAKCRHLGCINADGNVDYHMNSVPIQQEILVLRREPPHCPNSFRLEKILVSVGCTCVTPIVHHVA
Excerpt: BIACORE T100™ is used to determine antibody-antigen binding kinetics and affinity. The technology is based on surface plasmon resonance (SPR), an optical phenomenon that enables detection of label-free interactions in real time within a dextran biosensor matrix. It is therefore suited for measuring rate constants of association (kₒₙ) as well as dissociation (koff). All reagents and materials were purchased from GE Healthcare (Buckinghamshire, United Kingdom). […] 1×HBS-EP+ buffer (of 0.01M HEPES, 0.15M NaCl, 3 mM EDTA, 0.05% Polysorbate, pH 7.6) was used to reconstitute antigen at various concentrations (starting at 50 nM and using two-fold serial dilutions for each concentration). 210 μL of each antigen concentration was injected over captured antibody at a flow rate of 30 μL/min, then allowed to dissociate for 10 minutes. Surface was regenerated with 60 μL of 3M MgCl₂ after each cycle to establish baseline. Association and dissociation kinetic constants (kₐ and kd) were evaluated with “1:1 with mass transport” binding model in the BIACORE™ T100 Evaluation Software. The degree of binding for the BIACORE™ assay was measured as “++” (strong binding), “+” (binding), or “+/−” (close to background).

Row | Binder | binding result
1 | B1 | binds
2 | B2 | binds
3 | B3 | binds
4 | B4 | binds
5 | B5 | binds
6 | B6 | binds
7 | B7 | binds
8 | B8 | binds
9 | B9 | binds
10 | B10 | binds
11 | B11 | binds
12 | B12 | binds
13 | B13 | binds
14 | B14 | binds
15 | B15 | binds
16 | B16 | binds
17 | B17 | binds

Row | Binder | binding result
18 | B18 | binds
19 | B19 | binds
20 | B20 | binds
21 | B21 | binds
22 | B22 | binds
23 | B23 | binds
24 | B24 | binds
25 | B25 | binds
26 | B26 | binds
27 | B27 | binds
28 | B28 | binds
29 | B29 | binds
30 | B30 | binds
31 | B31 | binds
32 | B32 | binds
33 | B33 | binds
34 | B34 | binds

molecular target: T1, human IL-17; test: KINEXA 3000, solution equilibrium, free antibody captured on human IL-17a beads
Description: KINEXA® technology measures the unbound/free receptor molecule in solution phase. Measuring binding events in the solution phase with micro beads for maximized surface area avoids mass transport limitations and mobility effects inherent to methods that measure binding to a solid phase. […] Antibody-antigen solution was then flown over antigen-coupled beads at a rate of 0.25 mL/min. […] In order to achieve the most accurate measurement for each antibody, each “Kd controlled curve” (wherein the antibody concentration is below the Kd) was combined with the “receptor controlled curve” (where antibody concentration is well above the Kd) in N-curve analysis.

Row | Binder | Kd
35 | B35 | 0.092 nM
36 | B36 | 0.948 nM
37 | B37 | ~60 nM
38 | B38 | 0.126 nM
39 | B39 | 0.049 nM
40 | B40 | 2.5 nM
41 | B41 | 0.27 nM
42 | B42 | 6.1 nM
43 | B43 | 0.875 nM
44 | B44 | 14.2 nM
45 | B45 | 1.2 nM
46 | B46 | 6.9 nM
47 | B47 | 0.374 nM
48 | B48 | 0.0048 nM

molecular target: T1, human IL-17; test: SPR (BIACORE A100), IgG from transfection supernatant captured by anti-human Fc on CM5 chip, human IL-17 flowed over; 1:1 model with mass transport
Description: Supernatants in 96-well plates were harvested 5-7 days post transfection. Prior to loading onto BIACORE™ A100 and/or BIACORE™ 4000 (GE Healthcare, Buckinghamshire, United Kingdom), plates were spun down at 1500 rpm for 5 minutes to remove air bubbles. Positive, negative, and media controls were spiked into empty wells. An anti-human Fc specific IgG was amine-coupled to the Sensor Chip CM5 surface at two different densities on two spots of a given flowcell for 2 over 2 analyses. The IgGs of interest were captured at both densities. […] Surface was regenerated with 10 mM glycine at pH 1.7 to remove material that was bound to the capture antibody. The data set was analyzed with 1:1 interaction Langelier mode with mass transport.

Row | Binder | Kd
49 | B49 | > 10 nM
50 | B50 | > 10 nM
51 | B51 | > 10 nM
52 | B52 | < 1 nM
53 | B53 | < 1 nM
54 | B54 | < 1 nM
55 | B55 | > 10 nM
